The values that follow come from PMC6525205, “Structure of the human frataxin-bound iron-sulfur cluster assembly complex provides insight into its activation mechanism” (Nature Communications, 2019).

To fix the notation:
B1: human frataxin (FXN) (Δ1-80), wild-type (domain or fragment, UniProt Q16595 81-210, looked up)
chain: SGTLGHPGSLDETTYERLAEETLDSLAEFFEDLADKPYTFEDYDVSFGSGVLTVKLGGDLGTYVINKQTPNKQIWLSSPSSGPKRYDWTGKNWVYSHDGVSLHELLAAELTKALKTKLDLSSLAYSGKDA
notes: frataxin (FXN), human, Δ1-80; Cloned into pCDF-LIC-Bsa4; Two copies of FXN stand in the SDAUF heterodecamer; also called FXN(WT); WT; source: E. coli BL21(DE3)-R3-pRARE2, purified (Ni Sepharose, Superdex S75, TEV, reverse Ni); for cryo-EM co-expressed with the His-ISD11/NFS1/ISCU plasmid and purified as the SDAUF complex
B2: FXN(N151A) (domain or fragment, human, UniProt Q16595 81-210, looked up)
chain: B1 chain with N71A
notes: frataxin (FXN), human, Δ1-80, site-directed variant; Variant of m1
B3: FXN(N146K) (domain or fragment, human, UniProt Q16595 81-210, looked up)
chain: B1 chain with N66K
notes: frataxin (FXN), human, Δ1-80, clinical variant of Friedreich's ataxia; Variant of m1
B4: FXN(D124A) (domain or fragment, human, UniProt Q16595 81-210, looked up)
chain: B1 chain with D44A
notes: as for B2
B5: FXN(R165C) (domain or fragment, human, UniProt Q16595 81-210, looked up)
chain: B1 chain with R85C
notes: as for B3
B6: FXN(W155R) (domain or fragment, human, UniProt Q16595 81-210, looked up)
chain: B1 chain with W75R
notes: as for B3
B7: FXN(P163G) (domain or fragment, human, UniProt Q16595 81-210, looked up)
chain: B1 chain with P83G
notes: frataxin (FXN), human, Δ1-80, site-directed variant (Gly is the bacterial equivalent residue); Variant of m1

Positions count from the first letter of the chain named. In names and notes the source's numbering stands.

This assay deals with T1, NFS1-ISD11-ACP-ISCU complex with biotinylated ISCU (SDAUb) (human | E. coli, UniProt Q9Y697 56-457; Q9HD34 1-91; P0A6A8 1-74; Q9H1K1 35-167, pyridoxal 5′-phosphate covalently-linked to Lys258 | 4′-phosphopantetheine (4′-PP) acyl-chain attached to Ser37 | biotin (site and method not stated)).
T1 construct: NFS1 cysteine desulfurase, human, Δ1-55; C-terminal residue printed as His457; ISD11/LYRM4, human; E. coli acyl carrier protein (ACPec), endogenous in the expression host, co-purified; ISCU scaffold protein, human, isoform 1, Δ1-34; the related SDAUF complex holds two copies of each chain; source: purified SDA (E. coli) combined with biotinylated ISCU (E. coli) and isolated on Superdex 200 …
T1 sequence (Q9Y697 56-457, chain 1 of 4): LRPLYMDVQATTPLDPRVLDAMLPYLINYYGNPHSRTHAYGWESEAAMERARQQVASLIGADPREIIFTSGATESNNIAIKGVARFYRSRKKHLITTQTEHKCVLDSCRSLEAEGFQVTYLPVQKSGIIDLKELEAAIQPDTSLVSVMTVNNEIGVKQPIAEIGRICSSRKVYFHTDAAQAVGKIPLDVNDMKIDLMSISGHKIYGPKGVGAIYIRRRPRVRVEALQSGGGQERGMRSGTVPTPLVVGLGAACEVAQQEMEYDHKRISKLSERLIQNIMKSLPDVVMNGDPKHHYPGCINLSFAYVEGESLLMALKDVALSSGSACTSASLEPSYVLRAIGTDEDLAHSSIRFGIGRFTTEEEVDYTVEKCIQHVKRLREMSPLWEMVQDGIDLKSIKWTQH
T1 sequence (Q9HD34 whole entry, chain 2 of 4, canonical isoform): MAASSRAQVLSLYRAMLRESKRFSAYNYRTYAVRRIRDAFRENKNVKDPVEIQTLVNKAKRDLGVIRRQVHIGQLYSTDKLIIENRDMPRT
T1 sequence (P0A6A8 1-74, chain 3 of 4): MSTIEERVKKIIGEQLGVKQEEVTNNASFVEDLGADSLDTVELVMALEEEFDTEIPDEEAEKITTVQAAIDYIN
T1 sequence (Q9H1K1 35-167, chain 4 of 4): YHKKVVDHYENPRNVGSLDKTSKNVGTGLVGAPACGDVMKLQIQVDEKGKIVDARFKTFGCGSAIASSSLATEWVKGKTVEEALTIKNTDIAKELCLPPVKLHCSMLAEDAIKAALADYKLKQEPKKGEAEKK
Kind of assay: BLI; SDAUb complex (biotinylated ISCU) at 0.1 mg/mL loaded on streptavidin sensors; FXN 500 µM to 1 nM in solution; 25 °C; 50 mM HEPES pH 7.5, 200 mM NaCl, 5% glycerol, 2 mM TCEP, 5 mM DTT, 0.5 mg/mL BSA; Kd from response vs. [FXN], one site-specific binding fit. The conditions noted are these: both partners purified.
For the molecule B1, binding was characterised by a dissociation constant (Kd) of 3.32 µM. On to B2, for which the Kd was 9.45 µM. To B3 belongs 177 µM; to B4, 14.4 µM.

Consider B5, for which binding was put at a Kd of 134 µM.

B6 yielded a dissociation constant Kd of 253 µM. As to B7, the Kd came out at 38.5 µM.

For orientation: Kd means the equilibrium constant for the complex coming apart. A higher Kd goes with a looser complex.
